According to PMC11462610, “PpBBX32 and PpZAT5 modulate temperature-dependent and tissue-specific anthocyanin accumulation in peach fruit”:

What was measured:
PpZAT5 [1] = molecular target: T1, PpZAT5 (Prunus persica, UniProt A0A251NAP4 1-283); experiment: EMSA; LightShift Chemiluminescent EMSA kit (Thermo), biotin-labeled probes; buffer, salt, pH and temperature not stated; settings: protein: recombinant; tags: N-terminal His-trigger factor (pColdTF fusion); blunt
T1 sequence: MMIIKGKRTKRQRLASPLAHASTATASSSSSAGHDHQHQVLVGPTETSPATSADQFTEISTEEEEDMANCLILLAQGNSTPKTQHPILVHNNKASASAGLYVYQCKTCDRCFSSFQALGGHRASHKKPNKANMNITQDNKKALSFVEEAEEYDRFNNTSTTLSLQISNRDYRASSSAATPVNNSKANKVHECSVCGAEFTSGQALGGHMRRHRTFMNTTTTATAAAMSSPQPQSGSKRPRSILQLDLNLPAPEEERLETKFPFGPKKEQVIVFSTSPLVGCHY

PpBBX32 = molecular target: T2, PpBBX32 (Prunus persica, UniProt A0A251PTV0 1-264); experiment: EMSA; shift weakened by increasing cold probe; LightShift Chemiluminescent EMSA kit (Thermo), biotin-labeled probes; buffer, salt, pH and temperature not stated; settings: protein: recombinant; tags: N-terminal His-trigger factor (pColdTF fusion); label: biotin; blunt
T2 sequence: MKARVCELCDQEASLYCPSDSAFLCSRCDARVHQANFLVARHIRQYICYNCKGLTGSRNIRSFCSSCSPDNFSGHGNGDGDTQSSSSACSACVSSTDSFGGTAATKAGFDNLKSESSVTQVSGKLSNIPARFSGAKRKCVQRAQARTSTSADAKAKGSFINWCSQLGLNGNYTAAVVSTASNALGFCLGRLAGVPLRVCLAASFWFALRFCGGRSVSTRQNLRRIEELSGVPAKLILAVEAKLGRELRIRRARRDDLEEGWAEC

PpZAT5 [2] = molecular target: T1, PpZAT5; experiment: as above; settings: protein: recombinant; tags: N-terminal His-trigger factor (pColdTF fusion); label: biotin; blunt

B1: proPpMYB10.1 ACT core element 7 mutant (dsDNA)
DNA 1: TCTTAGCTAGTTACCCTAGTTATCAAG
DNA 2: CTTGATAACTAGGGTAACTAGCTAAGA
B1: no binding (PpZAT5 [1]).

B2: proPpMYB10.1 G-box1&2 (dsDNA)
DNA 1: CAGCTGTGATACGTGAACCACACGTGCTGACACTA
DNA 2: TAGTGTCAGCACGTGTGGTTCACGTATCACAGCTG
B2: binds (PpBBX32).

B3: proPpMYB10.1 ACT core element 7 (dsDNA)
DNA 1: TCTTAGCTAACTGTTACTGTTATCAAG
DNA 2: CTTGATAACAGTAACAGTTAGCTAAGA
B3: binds (PpZAT5 [2]).
